Target: T1, ENDOV WT (human endonuclease V, exon 10 isoform) (Homo sapiens, UniProt Q8N8Q3 1-282)
T1 sequence: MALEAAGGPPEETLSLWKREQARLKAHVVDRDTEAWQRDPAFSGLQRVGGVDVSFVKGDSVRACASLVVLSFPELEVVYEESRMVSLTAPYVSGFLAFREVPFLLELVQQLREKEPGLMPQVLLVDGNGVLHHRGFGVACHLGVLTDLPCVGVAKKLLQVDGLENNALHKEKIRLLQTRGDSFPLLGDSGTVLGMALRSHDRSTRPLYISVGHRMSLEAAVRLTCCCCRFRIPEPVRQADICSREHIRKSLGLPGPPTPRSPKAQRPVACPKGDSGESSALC
Assay: EMSA; 5 mM Ca2+; EMSA: 10 fmol DNA in 10 µl, 5 ng pQE31 competitor DNA, 5 mM CaCl2, 10 mM HEPES-KOH pH 7.4, 1 mM DTT, 20% glycerol, 4°C 15 min; 10% native PAGE with 5 mM CaCl2 on ice; ENDOV 1.6-6.4 pmol, E. coli endoV 2-8 pmol
Conditions: protein: recombinant, tags: none (His6-MBP removed with TEV)

B1: 5'-flap (10+12+13*) (structured_DNA)
DNA 1: GGATACGTAACAACGCTTATGCATCGCCGCCGCTACATCCCTGAGCTGAC
DNA 2: GTCAGCTCAGGGATGTAGCGGCGG
DNA 3: TGTGTTCGATCTCGATCAGAATGACGATGCATAAGCGTTGTTACGTATCC
Q: Does B1 bind (label: 5'-32P on strand 3, 5'-flap, 1:2 1:3, 5' part of strand 3 unpaired (24 nt))?
A: binds

B2: fork (10+11+14*+15) (structured_DNA)
DNA 1: B1 DNA 1
DNA 2: ATGCATAAGCGTTGTTACGTATCC
DNA 3: GTCAGCTCAGGGATGTAGCGGCGGAGTCATTCTGATCGAGATCGAACACA
DNA 4: TGTGTTCGATCTCGATCAGAATGA
Q: Does B2 bind (label: 5'-32P on strand 3, fork 1:2 1:3 3:4)?
A: binds

B3: 3-way junction (10*+13+14) (structured_DNA)
DNA 1: B1 DNA 1
DNA 2: B1 DNA 3
DNA 3: B2 DNA 3
Q: Does B3 bind (label: 5'-32P on strand 1, three-way junction 1:2 1:3 2:3)?
A: binds

B4: 3'-flap (10+11+14*) (structured_DNA)
DNA 1: B1 DNA 1
DNA 2: ATGCATAAGCGTTGTTACGTATCC
DNA 3: B2 DNA 3
Q: Does B4 bind (label: 5'-32P on strand 3, 3'-flap, 1:2 1:3, 3' part of strand 3 unpaired)?
A: binds

B5: pseudo-Y (10*+13) (structured_DNA)
DNA 1: B1 DNA 1
DNA 2: B1 DNA 3
Q: Does B5 bind (label: 5'-32P on strand 1, splayed duplex 1:2, 3' part of strand 1 and 5' part of strand 2 unpaired (24 nt each))?
A: binds

B6: Holliday junction (16+17*+18+19) (structured_DNA)
DNA 1: CCGCTACCAGTGATCACCAATGGATTGCTAGGACATCTTTGCCCACCTGCAGGTTCACCC
DNA 2: TGGGTGAACCTGCAGGTGGGCAAAGATGTCCTAGCAATCCATTGTCTATGACGTCAAGCT
DNA 3: GAGCTTGACGTCATAGACAATGGATTGCTAGGACATCTTTGCCGTCTTGTCAATATCGGC
DNA 4: TGCCGATATTGACAAGACGGCAAAGATGTCCTAGCAATCCATTGGTGATCACTGGTAGCGG
Q: Does B6 bind (label: 5'-32P on strand 2, four-way junction 1:2 2:3 3:4 4:1)?
A: binds

From PMC3489907, “The Human Homolog of Escherichia coli Endonuclease V Is a Nucleolar Protein with Affinity for Branched DNA Structures”
